Data from the nanobody polyreactivity screen of Harvey et al. (2022).

Assay: yeast display, Sf9 membrane polyspecificity reagent, FACS + sequencing; frameworks hold sequencing errors
Summary of the method: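 Nanobodies from a synthetic yeast display library (Saccharomyces cerevisiae BJ5465), induced 36–48 hours with galactose, were stained 1 hour at 4 °C with 10% biotinylated, detergent-solubilized Sf9 membrane reagent, enriched on streptavidin microbeads, then FACS-sorted. Anti-HA (expression) and streptavidin (reagent binding) fluorescence set low and high (top ~1%) gates. Polyreactivity labels come from the gate of origin. Genes were colony-PCR amplified, MiSeq 2 × 250 sequenced and filtered by CDR length.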

Sequence	polyreactivity (PSR sort gate)
QVQLEESGGGLVQAGGSLRLSCAASGRIFNENAMGWYRQAPGKERELVAAITQSGGSTYYADSVKGRFTISRDNAKNTVYLQMNSLKPEDTAVYYCAAGDAYYTEALPFGEYDYWGQGTQVTVSS	low polyreactivity
QVQLVESGGGLVQAGGSLRLSCAASGSTIRGYAMGWYRQVTGKEREMGADISWSGTSTKYADSVKGRFTISRDNAKNTVYLQMNSLKPEDTAVYYCAKRYVRFPWRMDYWGQGTQVTVSS	high polyreactivity
QVQLVESGGGLVQAGGSLRLSCAASGSIFYGNTMGWYRQAPGKERELVAAISSGGGSTYYADSVKGRFTISRDNAKNTFYSKMNSMKPEETAVYYCAKRTYKQASGYWYDSWGQGTKVTVSS	high polyreactivity
QVQLVESGGGLVQAGGSLRLSCAASGRIFGYYTMGWYRQAPGKEWEVVAGISSGGSTNYADSVKGRFTISRDNAKNTVYLQMNSLKPEDTAVYDCAAAYPHFGGYRYDYWGQGTQVTVSS	high polyreactivity
QVQLVESGGGLVQAGGSLRLSCAASGFTFWVYAMGWYRQAPGKERELVADISSGGSTNYADSVKGRFTISRDNAKNTVYLQMNSLKPEDTAVYYCATYRARWTWYTRYDYWGQGTQVTVSS	high polyreactivity
QVQLVESGGGLVQAGGSLRLSCAASGFTFSYYDMGWYRQAPGKERELVAAITQSGGSTYYADSVKGRFTISRDNAKNTVYLQMNSLKPEDTEVFYCAALTYRWSARDYWGQGTQVTVSS	high polyreactivity
QVQLVESGGGLVQAGGSLRLSCAASGSILGLNAMGWYRQAPGKERELVASISRRGGSTRYADSVKGRFTISRDNAKNTVYLQMNSLKPEDTAVYYCNAYHWDGDGVFYEYDYWGQGTQVTVSS	high polyreactivity
QVQLVESGGGLVQAGGSLRLSCAASGGIFRWYVMGWYRPEPGKERDFVAAISQSGGSTYYADSVKGRFTISRDNAKNTVYLQMNCLKPEDTAVYYCAAGFYHYRSFNFDYWGQGTQVTVSS	high polyreactivity
QVQLVESGGGLVQAGGSLRLSCAASGFTFYYAMGWYRQAPGKERELVAAISSSGARTYYADSVKGRFTISRDNAKYTVYLQMNSLKPEDTAVYYCAARRYYKFYYWGQGTQVTVSS	high polyreactivity
QVQLEESGGGLVQAGGSLRLSCAASGSIFVSVTMGWYRQAPGKERELVASIGRGSTTNHADSVKGRFTISRDNAKNIVYLLMNSLKPEDTAVYYCAALESYGKYHGYWGQGTQVTVSS	low polyreactivity
QVQLVESGGGLVQAGGSLRLSCAASGRTFSYYAMGWYIQAPGKERELVAAITWSGASTYYADSVKGRFTISRDNAKNTVYLQMNSLKPEDTAVYYCNAGWDSGIVQSDETVYKYDYWGQGTQVTVSS	low polyreactivity
QDQLVESAGGLVQAGGSLRLSCAASVITFVRYVMGWYRQAPGKEREFVARIRWRGGSTNYADSVKGRFTISRDNAKNTVYLQMNSLKPEDTAVYYCNAVRRASSGYDYWGQGTQVTVSS	high polyreactivity
QDQLVESGGGLVQAGVSLRLRSAASGFISQENAMGWYRQAPGKDRELVATISGSVGITYYADSVKGRFTISRDNAKNTVYLQMNSLKPEDTAVYYCNKEISYLSWGYDYWGLGTQVTVSS	low polyreactivity
QVQLVESGGGLVQAGGSLRLSCAASGSTFYKYAMGRYREAPRKERELVASISRSGGSTSYADSVTGRFTISRDNAKNTVYLQMNSLTPEDTAVYYCAATWRQHPGSMGYWGQGTQVTVSS	high polyreactivity
QVQLQESAGGLEQAGGSLRRICSARCNINSDASMGSYRQAPGKQREHAASTTKGSRTHDAESVKGRLTIRDNAKNTVYLQMNSLKPDDTAVCYSAVTYPYWGDYTYWGQGTQVTVSS	low polyreactivity
QVQLVESGGGLVQEGGSLRLNCAASGSTFWGNAMGWYRQPPGKDRELVAAISTSDTSTYYADSVKGRFTISRDNAKNTVYLQMNSLKPEDTAVYFCAAEWYYGEKYDYWGQGTQVTVSS	low polyreactivity
QVQLVESAGGLGQAGGSLRLSCAASGRIIVRNTMGWYRQAPGKDRELVARITGRGGTTYYADSVKGRFTISRDYAKNPVYFQMNSLKPEDTADYYCKAGKYLRLDPVGPNYSRKYGYWGQGTQVTVSS	low polyreactivity
QVQLVESGGGLVQAGGSLRLSCAASGSTFGPYAMGWYRQAPGKERELVADITVSDGSTYYADSVKGRFTISRDNAKNTVYLQMNSLKPEHTAVYYCAAEIYYSFGYWGQGTQVTVSS	low polyreactivity
QVQLVESGGGLVQAVGSLRLTCAASGITFLNYAMGWYRQAPGKERELVSAISWSGGRTYYAVSVKGRFTISRDYAKNTVYLQMNSLKPEDTAVYYCATVYVRYRQSRLIRYGYWGQGTQVTVSS	high polyreactivity
QVQLVESGGGLVQAGGSLRLSCAASGRIFKIYAMGWYRQAPGKERELVASISWSGGRTYYADSVKGRFTISRDNAKNTVYLQMNSLKPEDTAVYYCAATFSYSSYIYDYWGQGTQVTVSS	high polyreactivity
QVQLVESGGRLVQAGGSLRLSCAASGRTFIKYAMGWYRQAPGKERELVAAISRNGGSTNYADSVKGRFTISRDNAKNTVYLQMNSLKPEDTAVYYCAAVGTVSRTVGYNYWGQGTQVTVSS	high polyreactivity
QVHLVESGGALVQAGGSLRLSCAASGSTFWFYAMLWYRQAPGKERELVAAITRSAGSTYYADSVKGRFTISRDNAKYTVFLQMNSLKPEDTAVYYCAAQRESLYGGFDSWGQGTQVTVSS	low polyreactivity

Sequence	polyreactivity (PSR sort gate)
QVQLVESGGGLVQAGGSLRLSCAASGRTFVIYAMGWYRQAPGKEREFVPAISKGGGSTYYADSVKGRFTISRDNAKNTVYLQMNSLKPEDTAVYYCAAGYGTYYQSSRFDYWGQGTQVTVSS	high polyreactivity
QVQRVESGGGLVQAGGSLLLSCAASGRIFVTYAKGWYRQAPGKERDLVASITGGGSRYYADSVKGRVTISRDKAKTTVYVQMTRLKPEDPAVNYCAAKSRSWYFGYGYWGQGTQVTVSS	high polyreactivity
QVQLVESGGGLVQAGCSLRLSCAATGSFFGFYSMGWYRQAPGKEMELVASITISGGSTYYADSVKGRFTISRDNAKNNVYLQMNSLKLEDTAVYFCAAETYAYLFHTYDYWGQGTHVTVSS	low polyreactivity
QDQLVESRGGLVQAGGSLRLSCAASGSTFGKNTMGWYRQAPGKERELVAAISRGVSTYYADSVKGRFTISRDNAKNTVYLQMNSLKPEDTAVYYCAAQEAYRWYGFDYWGQGTQVTVSS	high polyreactivity
QVQLVESGGVLVQAGGSLRLSCPASGRTFTYNAMGWYRQAPGKERELVAVITNSGGSTYYADSVKGRFTISRDNPKNTVYLQMNSLKPEDTAVYYCAADYFYRYWYRFYYWGQGTQVTVSS	high polyreactivity
QVQLVESGGGLVQAGGSLRLSCAASGSIFITYAMGWYRQAPGKERELVAAIRRGGRTNYADSVKGRFTISRDNAKNTVYLQMNSLKPEDTAVYYCAAEFRTGWPYYPDYAYDYWGQGTQVTVSS	low polyreactivity
QVQLVESGGGLVQAGGSLRLSCAASGFIFRYYAMGWYRQAPGKERELVAAISYSGGYTYYADSVKGRFTISRDNAKNTVYLQMNSLKPEDTAVYYCAAVLRTRDHPQPNYEYWGQGTQVTVSS	high polyreactivity
QVQLVESRGGLVQAGGSLRLSCAASGIIFHFYAMGWYRQAPGKERELVAAINSRGGSTYYADSVKGRFTISRDNAKNTVYLQMNSLKPEDTAVYYCAAQYLFYGHDYWGQGTQVTVSS	low polyreactivity
QVQLVESGGGLVQAGGSLRLSCAASGIIFTTNAMGWYRQAPGKERELVATISTGGGTYYADSVKGRFTSSRDNAKNTVYLQMHSLKPEDTAVYYCAATPGWGPWIFDHSYVDFDYWGQGTQVTVSS	low polyreactivity
EVQLVESGGGLVQAGGSLRLSCAASGFFYPNNAMGWYRQAPGKERELVARISYGGGDTHYADSVKGRFTISRDNAKNTVYLQMNSLKPEDTAVYYCAVKDGQDDYWGQGTQVTVSS	low polyreactivity
QVQLVESGGGLVQAGGSLRLSCAASGSIFYGYDMGWYRQAPGKERELVATISWSSGSSTYYADSVKGRFTISRDNAKNTVYLQMNSLKPEYTAVYYCAVDFAIGYRYLGRVDYWGQGTQVTVSS	low polyreactivity
QVQLVESGGGLVQAGGSLRLSCAASGSIFEIYAMGWYRQAPGKERELVASITWSGGSTYYADSVKGRFTISRDNAKNTVYLQMNSLKPEDTAVYYCATDKLYGRTVRMDYWGQGTQVTVSS	low polyreactivity
QVQLVESGGGLVQAGGSLRLTCAASGRIFSRNTMGWYRQAPGKERELVATISWSGSRTYYADSVKGRFTISRDNAKNTVYLQMNSLKPEDTAVYYCAAVVPLSRSYDYYYWGQGTQVTVSS	high polyreactivity
QVQLVESGGGLVQAGGSLRLSCAASGRTFPVYAMGWYRQAPGKERELVASITGRGGSTYYADSVKGRFTISRDNAKNTVYLQMNSLKPEDTAVYYCARDWYKTYTGYYWGQGTQVTVSS	high polyreactivity
QVQLVESGGGLVQAGGSLRLSCAASGSTFPAYAMGWYRQAPGKERELVATITYTGGSTYYADSVKGRFTISRDNAKNTVYLQMNSLKPEDTAVYYCAADRWDQEDEFDYWGQGTQVTVSS	low polyreactivity
QVQLVESGGGLVQAGGSLRLSCAASGFTFVGNAMGWYRQAPGKERELVAAITSGGSTYYADSVKGRFTISRDNAKNTVYLQMNSLKPEDTAVYYCATGGRGGRRYEYWGQGTQVTVSS	low polyreactivity
QVQLVESGGGLVQAGGSLRLSCDASGSILSFYVMGWYIQAPGKERELVAAINLSSGRTYYADSVKGRFTISRDNAKNTVYLQMNSLKPEDTAVYYCAKQVFGYGIVNNGDYWGQGTQVTVSS	high polyreactivity
QVQLVDSGGGLVQAGGSLRLSCAASGSTVQYYAMGWYRQAPGKERELVAAITHSGTRTYYADSVKGRFTISRDNAKNTVYLQINSLKPEDTAVYYCAARGYGKYDYWGQGTQVTVSS	high polyreactivity
QVQLVESGGGLVQAGGSLRLSCAASGITFGAYTMGWYRQAPGKERELVAAISGSGGSTYYADSVKGRFTISRDNAKNTVYLQMNSLKPEDTAVTYCNKVLSPHLGCSFDYWGQGTEVTVSS	high polyreactivity
QVQLVESGGGLVQAGGSLRLSCAASGRTFSIYAMGWYRQAPVKERELVAAISNGGRTKYADSVKGRFTISRDNAKNTVSLQMNSLKPEDTAVYYCAKRTYSRKFRGAYNYWGQGTQVTVSS	high polyreactivity
QVQLVESGGGLVQAGGSLRLRCAASGTTFRLYAMGWYRQAPGKERELVAAISWIGGRTYYADSVKGRFTISRDNAKNTVYLQMNSLKPEDTAVYYCAATCAYRVARGYDYWGQGTQVTVSS	high polyreactivity
